Where a SMILES comes first, the peptide text is derived from it.
Tests used:
[1] = target: T1, GRK5(h) (Homo sapiens, UniProt P34947); test: Kinase Profiling Assay; assay type: biochemical; details: 100 μM peptide
T1 construct: purchased Millipore
Procedure, shortened: (§1)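 Selectivity profiling: MK2-targeting peptides tested on 266 human kinases. All activity determinations done in duplicate.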

[2] = target: T2, JAK3(h) (Homo sapiens, UniProt P52333); test: Kinase Profiling Assay; assay type: biochemical; details: 100 μM peptide
T2 construct: purchased Millipore
T2 sequence (P52333 1-1124): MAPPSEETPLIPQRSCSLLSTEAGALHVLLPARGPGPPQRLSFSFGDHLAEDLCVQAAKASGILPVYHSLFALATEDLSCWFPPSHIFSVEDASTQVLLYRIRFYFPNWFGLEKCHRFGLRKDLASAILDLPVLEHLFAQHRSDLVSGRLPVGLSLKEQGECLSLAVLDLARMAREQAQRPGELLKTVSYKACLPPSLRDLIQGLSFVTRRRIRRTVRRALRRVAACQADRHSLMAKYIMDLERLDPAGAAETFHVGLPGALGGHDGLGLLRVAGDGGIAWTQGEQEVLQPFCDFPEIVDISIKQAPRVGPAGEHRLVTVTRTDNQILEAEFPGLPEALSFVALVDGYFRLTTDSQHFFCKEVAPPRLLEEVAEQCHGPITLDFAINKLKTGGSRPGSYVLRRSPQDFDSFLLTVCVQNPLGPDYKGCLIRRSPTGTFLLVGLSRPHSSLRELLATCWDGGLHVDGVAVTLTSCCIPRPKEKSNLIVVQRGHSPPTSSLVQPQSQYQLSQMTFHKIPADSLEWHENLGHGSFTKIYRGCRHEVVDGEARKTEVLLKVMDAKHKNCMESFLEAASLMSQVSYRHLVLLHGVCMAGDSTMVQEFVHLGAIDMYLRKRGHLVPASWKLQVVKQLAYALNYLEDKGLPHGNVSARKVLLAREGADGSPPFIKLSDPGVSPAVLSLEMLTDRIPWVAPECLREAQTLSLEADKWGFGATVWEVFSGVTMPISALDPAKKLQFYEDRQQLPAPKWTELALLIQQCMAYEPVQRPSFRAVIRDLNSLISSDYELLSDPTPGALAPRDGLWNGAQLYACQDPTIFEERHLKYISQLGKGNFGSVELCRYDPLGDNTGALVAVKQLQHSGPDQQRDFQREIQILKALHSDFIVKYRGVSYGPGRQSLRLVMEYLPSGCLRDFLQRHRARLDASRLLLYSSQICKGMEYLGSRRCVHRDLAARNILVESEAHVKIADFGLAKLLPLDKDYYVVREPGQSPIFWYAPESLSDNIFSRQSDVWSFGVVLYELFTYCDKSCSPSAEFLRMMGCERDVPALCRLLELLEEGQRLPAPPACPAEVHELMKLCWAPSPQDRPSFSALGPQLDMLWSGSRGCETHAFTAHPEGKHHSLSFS
Procedure, shortened: as §1

[3] = target: PAK6(h) (Homo sapiens, UniProt Q9NQU5); test: Kinase Profiling Assay; assay type: biochemical; details: 100 μM peptide
Procedure, shortened: as §1

[4] = target: PDGFRα(D842V)(h) (Homo sapiens, UniProt P16234, D842V); test: Kinase Profiling Assay; assay type: biochemical; details: 100 μM peptide
Chain of PDGFRα(D842V)(h) (P16234 24-1089 D842V): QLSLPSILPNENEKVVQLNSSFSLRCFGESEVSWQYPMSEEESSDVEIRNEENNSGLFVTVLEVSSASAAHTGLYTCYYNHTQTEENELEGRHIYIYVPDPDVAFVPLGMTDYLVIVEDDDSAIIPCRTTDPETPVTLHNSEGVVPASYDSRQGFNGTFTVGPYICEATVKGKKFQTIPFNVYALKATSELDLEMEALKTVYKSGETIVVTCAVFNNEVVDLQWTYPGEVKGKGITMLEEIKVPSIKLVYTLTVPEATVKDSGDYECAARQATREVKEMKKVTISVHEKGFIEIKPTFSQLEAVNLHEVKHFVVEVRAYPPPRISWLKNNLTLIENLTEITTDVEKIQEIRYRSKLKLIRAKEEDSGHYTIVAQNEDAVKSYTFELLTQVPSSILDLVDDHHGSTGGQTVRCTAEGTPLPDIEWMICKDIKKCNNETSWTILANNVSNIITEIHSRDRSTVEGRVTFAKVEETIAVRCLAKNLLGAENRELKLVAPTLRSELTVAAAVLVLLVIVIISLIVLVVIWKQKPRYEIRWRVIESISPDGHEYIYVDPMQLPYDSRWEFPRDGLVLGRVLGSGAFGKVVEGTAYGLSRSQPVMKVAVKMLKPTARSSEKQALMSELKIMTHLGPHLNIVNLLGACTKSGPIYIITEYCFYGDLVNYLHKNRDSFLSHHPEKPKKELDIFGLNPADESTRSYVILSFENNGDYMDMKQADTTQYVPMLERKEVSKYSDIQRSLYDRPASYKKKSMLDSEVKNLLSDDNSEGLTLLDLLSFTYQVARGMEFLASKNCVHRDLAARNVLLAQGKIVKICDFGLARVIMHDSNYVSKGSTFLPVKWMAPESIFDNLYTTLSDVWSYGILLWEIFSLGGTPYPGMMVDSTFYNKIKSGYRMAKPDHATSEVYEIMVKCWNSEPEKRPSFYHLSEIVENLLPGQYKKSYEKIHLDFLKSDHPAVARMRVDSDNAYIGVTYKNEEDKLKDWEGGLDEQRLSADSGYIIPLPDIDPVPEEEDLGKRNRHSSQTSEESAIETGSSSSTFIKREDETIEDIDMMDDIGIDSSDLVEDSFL
Procedure, shortened: as §1

[5] = system: TNF-α; test: Circulating inflammatory cytokines, bleomycin treatment model; assay type: in vivo, mouse; details: intraperitoneal or nebulized; 24 hours after final administration
[6] = system: α-SMA; test: α-SMA immunostaining of lung sections, bleomycin treatment model; assay type: in vivo, mouse; details: 50 μg/kg/day IP or NEB, day 14 to 28; vs untreated bleomycin-injured lungs
From the text: C57-BL/6 mice were subjected to bleomycin injury at day 0. […] Formalin-fixed lung tissue sections were immunostained against α-SMA. Control staining was with biotinylated secondary IgG antibody. Streptavidin-conjugated horseradish peroxidase was used with 3,3′-diaminobenzidene as substrate and nuclei was counterstained with hematoxylin. Original magnifications: 20×

[7] = system: human fetal lung fibroblasts (IMR-90); test: TGF-β1-induced myofibroblast activation in IMR-90 cells, α-SMA immunoblot; assay type: cell-based; details: 1 h pre-treatment, TGF-β1 2 ng/ml 48 h
From the text: Cell lysates were immunoblotted against antibodies for α-SMA (a marker for myofibroblast activation) and GAPDH (loading control).

[8] = system: human fetal lung fibroblasts (IMR-90); test: TGF-β-mediated fibronectin expression in IMR-90 cells; assay type: cell-based; details: 1 h pre-treatment, TGF-β1 2 ng/ml 72 h
Protocol: Fibronection was measured as secreted fragments in the conditioned media. Equal amounts (14 μg) of total proteins from the conditioned media were loaded in each lane.

[9] = target: CK1γ1(h) (Homo sapiens, UniProt Q9HCP0); test: Kinase Profiling Assay; assay type: biochemical; details: 100 μM peptide
Chain of CK1γ1(h) (Q9HCP0 whole entry): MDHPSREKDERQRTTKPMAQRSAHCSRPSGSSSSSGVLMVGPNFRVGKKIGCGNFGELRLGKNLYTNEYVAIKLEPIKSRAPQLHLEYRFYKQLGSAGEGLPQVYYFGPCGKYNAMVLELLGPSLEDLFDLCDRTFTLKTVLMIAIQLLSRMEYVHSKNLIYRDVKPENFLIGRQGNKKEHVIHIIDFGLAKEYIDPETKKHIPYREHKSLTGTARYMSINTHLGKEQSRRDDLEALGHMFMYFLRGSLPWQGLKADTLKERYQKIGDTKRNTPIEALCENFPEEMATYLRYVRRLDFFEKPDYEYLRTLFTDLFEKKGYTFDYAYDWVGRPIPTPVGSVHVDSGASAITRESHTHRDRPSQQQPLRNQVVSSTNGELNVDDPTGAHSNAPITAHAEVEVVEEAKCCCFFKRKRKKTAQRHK
Procedure, shortened: as §1

[10] = target: CLK2(h) (Homo sapiens, UniProt P49760); test: Kinase Profiling Assay; assay type: biochemical; details: 100 μM peptide
Chain of CLK2(h) (P49760 whole entry): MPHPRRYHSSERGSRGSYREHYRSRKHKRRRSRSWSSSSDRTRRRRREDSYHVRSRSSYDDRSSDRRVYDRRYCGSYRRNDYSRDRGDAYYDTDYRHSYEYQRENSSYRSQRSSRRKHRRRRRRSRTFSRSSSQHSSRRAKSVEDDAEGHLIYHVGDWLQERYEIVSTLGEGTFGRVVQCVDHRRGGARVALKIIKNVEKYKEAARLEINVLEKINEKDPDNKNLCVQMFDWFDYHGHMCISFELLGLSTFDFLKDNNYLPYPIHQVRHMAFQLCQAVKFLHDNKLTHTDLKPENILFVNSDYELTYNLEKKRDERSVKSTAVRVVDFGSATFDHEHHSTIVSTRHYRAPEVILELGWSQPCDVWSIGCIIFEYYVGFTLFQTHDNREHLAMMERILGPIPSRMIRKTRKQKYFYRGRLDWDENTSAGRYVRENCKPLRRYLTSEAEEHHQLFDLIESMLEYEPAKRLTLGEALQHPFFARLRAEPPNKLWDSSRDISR
Procedure, shortened: as §1

[11] = target: T3, Plk1(h) (Homo sapiens, UniProt P53350); test: Kinase Profiling Assay; assay type: biochemical; details: 100 μM peptide
T3 construct: purchased Millipore (IC50 Profiler Express service)
T3 sequence (P53350 whole entry): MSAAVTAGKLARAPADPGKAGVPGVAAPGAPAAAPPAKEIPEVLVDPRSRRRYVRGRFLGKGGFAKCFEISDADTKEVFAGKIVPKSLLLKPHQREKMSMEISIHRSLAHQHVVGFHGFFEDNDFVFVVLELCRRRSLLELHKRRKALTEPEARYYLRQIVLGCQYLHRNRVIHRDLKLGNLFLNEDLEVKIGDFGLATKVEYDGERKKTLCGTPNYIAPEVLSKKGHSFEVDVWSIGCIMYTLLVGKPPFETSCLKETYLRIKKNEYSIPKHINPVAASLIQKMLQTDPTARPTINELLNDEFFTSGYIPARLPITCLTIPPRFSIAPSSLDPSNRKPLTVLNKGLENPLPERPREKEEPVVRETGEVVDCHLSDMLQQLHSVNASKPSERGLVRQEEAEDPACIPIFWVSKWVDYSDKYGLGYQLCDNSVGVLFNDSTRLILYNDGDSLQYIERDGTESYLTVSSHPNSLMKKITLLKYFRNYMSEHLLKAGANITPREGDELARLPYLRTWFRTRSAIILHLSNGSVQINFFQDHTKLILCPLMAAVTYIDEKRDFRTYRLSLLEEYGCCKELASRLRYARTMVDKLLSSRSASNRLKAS
Procedure, shortened: as §1

[12] = target: CK1γ2(h) (Homo sapiens, UniProt P78368); test: Kinase Profiling Assay; assay type: biochemical; details: 100 μM peptide
Chain of CK1γ2(h) (P78368 whole entry): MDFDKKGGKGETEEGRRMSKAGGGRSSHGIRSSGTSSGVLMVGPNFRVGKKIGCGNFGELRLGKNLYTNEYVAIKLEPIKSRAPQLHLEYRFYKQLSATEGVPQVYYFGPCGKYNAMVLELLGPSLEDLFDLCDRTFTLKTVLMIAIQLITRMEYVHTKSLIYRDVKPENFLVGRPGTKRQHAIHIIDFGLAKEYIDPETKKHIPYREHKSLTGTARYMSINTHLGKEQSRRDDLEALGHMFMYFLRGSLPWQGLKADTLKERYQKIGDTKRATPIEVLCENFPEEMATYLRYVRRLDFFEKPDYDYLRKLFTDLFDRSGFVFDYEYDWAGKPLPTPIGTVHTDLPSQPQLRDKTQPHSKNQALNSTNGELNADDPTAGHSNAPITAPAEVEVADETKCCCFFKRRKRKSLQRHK
Procedure, shortened: as §1

[13] = target: EGFR(T790M)(h) (Homo sapiens, UniProt P00533, T790M); test: Kinase Profiling Assay; assay type: biochemical; details: 100 μM peptide
Procedure, shortened: as §1

[14] = target: T4, HIPK3(h) (Homo sapiens, UniProt Q9H422); test: Kinase Profiling Assay; assay type: biochemical; details: 100 μM peptide
T4 construct: purchased Millipore
T4 sequence (Q9H422 whole entry): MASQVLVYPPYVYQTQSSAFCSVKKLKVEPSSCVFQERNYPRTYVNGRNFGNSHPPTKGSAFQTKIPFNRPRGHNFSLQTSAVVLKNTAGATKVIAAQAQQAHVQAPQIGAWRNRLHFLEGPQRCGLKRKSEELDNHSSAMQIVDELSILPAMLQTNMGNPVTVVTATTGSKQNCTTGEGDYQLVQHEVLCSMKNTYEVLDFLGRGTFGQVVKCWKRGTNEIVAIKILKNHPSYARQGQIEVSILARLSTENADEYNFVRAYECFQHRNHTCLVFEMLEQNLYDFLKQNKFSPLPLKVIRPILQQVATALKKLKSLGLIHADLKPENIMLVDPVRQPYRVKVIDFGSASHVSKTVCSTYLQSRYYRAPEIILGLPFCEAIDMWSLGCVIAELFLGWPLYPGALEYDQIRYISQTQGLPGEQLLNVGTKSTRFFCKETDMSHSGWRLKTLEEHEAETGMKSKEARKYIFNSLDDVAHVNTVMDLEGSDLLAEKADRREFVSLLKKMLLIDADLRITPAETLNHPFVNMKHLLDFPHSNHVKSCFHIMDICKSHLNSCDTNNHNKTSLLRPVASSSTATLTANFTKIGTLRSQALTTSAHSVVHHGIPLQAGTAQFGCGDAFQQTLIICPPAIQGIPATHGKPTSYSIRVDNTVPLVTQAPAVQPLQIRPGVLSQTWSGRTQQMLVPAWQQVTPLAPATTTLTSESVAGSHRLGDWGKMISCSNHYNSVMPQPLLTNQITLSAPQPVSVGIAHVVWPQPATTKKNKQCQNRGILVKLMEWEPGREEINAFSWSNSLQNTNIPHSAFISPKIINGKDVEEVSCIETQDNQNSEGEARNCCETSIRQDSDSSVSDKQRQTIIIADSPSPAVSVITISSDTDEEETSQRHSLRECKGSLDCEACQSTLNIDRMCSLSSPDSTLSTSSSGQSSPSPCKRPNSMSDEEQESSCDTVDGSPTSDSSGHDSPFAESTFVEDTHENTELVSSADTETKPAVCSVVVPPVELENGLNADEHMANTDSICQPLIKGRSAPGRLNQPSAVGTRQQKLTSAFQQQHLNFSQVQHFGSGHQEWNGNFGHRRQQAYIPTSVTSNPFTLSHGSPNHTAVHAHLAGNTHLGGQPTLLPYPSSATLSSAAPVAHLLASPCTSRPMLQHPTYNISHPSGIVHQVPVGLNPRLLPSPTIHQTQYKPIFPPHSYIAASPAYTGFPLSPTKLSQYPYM
Procedure, shortened: as §1

[15] = target: c-RAF(h) (Homo sapiens, UniProt P04049); test: Kinase Profiling Assay; assay type: biochemical; details: 100 μM peptide
Procedure, shortened: as §1

T1 sequence (P34947 whole entry): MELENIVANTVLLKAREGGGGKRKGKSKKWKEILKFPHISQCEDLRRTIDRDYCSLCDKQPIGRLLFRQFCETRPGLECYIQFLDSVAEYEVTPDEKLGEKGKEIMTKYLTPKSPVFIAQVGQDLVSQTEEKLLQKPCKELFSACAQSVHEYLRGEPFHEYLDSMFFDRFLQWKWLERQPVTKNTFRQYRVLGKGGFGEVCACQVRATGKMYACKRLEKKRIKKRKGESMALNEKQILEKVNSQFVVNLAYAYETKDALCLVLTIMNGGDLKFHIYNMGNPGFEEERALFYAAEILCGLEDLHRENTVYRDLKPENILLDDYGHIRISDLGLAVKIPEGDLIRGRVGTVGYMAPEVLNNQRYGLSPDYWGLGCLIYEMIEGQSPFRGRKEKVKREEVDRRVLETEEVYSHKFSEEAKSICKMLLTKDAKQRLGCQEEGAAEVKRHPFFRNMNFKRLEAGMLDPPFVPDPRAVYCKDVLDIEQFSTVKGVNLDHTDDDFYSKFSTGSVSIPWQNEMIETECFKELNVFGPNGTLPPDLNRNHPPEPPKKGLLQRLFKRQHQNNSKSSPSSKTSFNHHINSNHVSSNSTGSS

| Compound | GRK5(h) % activity [1] [%] | JAK3(h) % activity [2] [%] | PDGFRα(D842V)(h) % activity [4] [%] | protein level of α-smooth muscle actin (α-SMA) [7] | protein level of fibronectin (conditioned media) [8] | EGFR(T790M)(h) % activity [13] [%] | HIPK3(h) % activity [14] [%] | other results |
| --- | --- | --- | --- | --- | --- | --- | --- | --- |
| KAFAKLAARLYRKALARQLGVAA [MMI-0400] | 131 | 122 | 118 | – | – | – | – | PAK6(h) % activity [3]: 100% |
| CC(C)C[C@H](NC(=O)[C@H](C)NC(=O)[C@H](CCCCN)NC(=O)[C@H](C)NC(=O)[C@H](CCCNC(=N)N)NC(=O)[C@H](C)NC(=O)[C@H](CCC(N)=O)NC(=O)[C@H](CCCNC(=N)N)NC(=O)[C@H](C)NC(=O)[C@H](C)NC(=O)[C@H](C)NC(=O)[C@H](CCCNC(=N)N)NC(=O)[C@H](C)NC(=O)[C@@H](N)Cc1ccc(O)cc1)C(=O)N[C@@H](C)C(=O)N[C@@H](CCCNC(=N)N)C(=O)N[C@@H](CCC(N)=O)C(=O)N[C@@H](CC(C)C)C(=O)NCC(=O)N[C@H](C(=O)N[C@@H](C)C(=O)N[C@@H](C)C(=O)O)C(C)C [MMI-0100] (H-YARAAARQARAKALARQLGVAA-OH; N-terminus and C-terminus assumed) | – | – | – | decreases in the levels | decreases in the levels | – | – | plasma level of TNF-α [5]: significantly reduced; level of α-SMA in lungs [6]: significantly attenuated |
| YARAAARQARAKALNRQLGVA (Mammalian) [MMI-0200] | 135 | – | – | no changes in the protein level | no changes in the protein level | – | – | CK1γ1(h) % activity [9]: 98%; CLK2(h) % activity [10]: 97%; Plk1(h) % activity [11]: 128% |
| FAKLAARLYRKALARQLGVAA [MMI-0300] | – | – | – | – | – | 100 | 93 | CK1γ2(h) % activity [12]: 123% |
| HRRIKAWLKKIKALARQLGVAA (Mammalian) [MMI-0500] | – | 95 | 170 | – | – | 70 | 85 | c-RAF(h) % activity [15]: 19% |
